Key:
MLL1 = details: ref Wang et al., 2010; cited from earlier work
BMAL1 TAD = assay: Cyclophilin acceleration of TAD switch isomerization by 15N-1H ZZ-exchange NMR; assay type: biochemical, mouse; details: room temperature (22.68°C), 400 μM 15N BMAL1 TAD + 100 μM cyclophilin, 20 mM HEPES pH 7.0 (pH 7.5 for His6GST-PPIL3), 100 mM NaCl, 2 mM TCEP
cyclophilin family = details: active site; ref Davis et al., 2010; cited from earlier work
U2OS Bmal1-dLuc cells = assay: Circadian period of U2OS Bmal1-dLuc cells with inhibitors; assay type: cell-based, human; details: 0.3% DMSO, n = 3 replicates with 2 independent assays
[1] = test system: Bmal1^−/−; Per2^Luc fibroblasts complemented with WT or trans-locked Bmal1; assay: CsA-induced period change in complemented Bmal1-/-; assay type: cell-based, mouse; details: particularly at 10 μM CsA
BMAL1 = details: screen for interacting partners; ref Lipton et al., 2015; cited from earlier work
[2] = test system: W624-P625 imide bond of BMAL1 TAD; assay: 15N-1H ZZ-exchange NMR kinetics of TAD switch isomerization; design: species or system mouse
[3] = test system: Bmal1^−/−; Per2^Luc mouse fibroblasts; assay: Circadian period of complemented Bmal1-/-; assay type: cell-based; details: stable complementation, 37°C, dexamethasone-synchronized
[4] = 25 °C, extrapolated from Eyring plot
[5] = 37 °C, extrapolated from Eyring plot
[6] = 55 °C, 400 μM 15N BMAL1 TAD, 10 mM MES pH 6.5, 50 mM NaCl, 10% D2O
[7] = 60 °C, 400 μM 15N BMAL1 TAD, 10 mM MES pH 6.5, 50 mM NaCl, 10% D2O
[8] = 65 °C, 400 μM 15N BMAL1 TAD, 10 mM MES pH 6.5, 50 mM NaCl, 10% D2O

PPIE: human nuclear cyclophilin [reference compound]
binding to MLL1 (MLL1): binds to the histone methyltransferase MLL1 to modulate its activity
activity on TAD switch isomerization, in words (BMAL1 TAD): significantly increased the rate of isomerization in BMAL1

PPIH: human nuclear cyclophilin [reference compound]
activity on TAD switch isomerization, in words (BMAL1 TAD): significantly increased the rate of isomerization in BMAL1

Cyclosporin A [CsA]
affinity for cyclophilin family (cyclophilin family): 5 to 500 nM
effect on circadian period (U2OS Bmal1-dLuc cells): dose-dependent lengthening of circadian period with low doses
switch-independent effect on period [1]: Switch-independent changes in period

PPIA: peptidyl prolyl isomerase A, human cyclophilin
co-immunoprecipitation with BMAL1 (BMAL1): co-immunoprecipitated with BMAL1

BMAL1 TAD: Mouse BMAL1 TAD (residues 579–626), recombinant
overall exchange lifetime ([2]; 25 °C): approximately 10 minutes
Rate of isomerization cis➔trans [2, 4]: 0.00458 s⁻¹
Rate of isomerization trans➔cis [2, 4]: 0.00264 s⁻¹
Time per isomerization event cis➔trans [2, 4]: 218.34 s
Time per isomerization event trans➔cis [2, 4]: 378.78 s
detection of isomerization by ZZ exchange ([2]; 25 °C, in words): too slow to be detected at room temperature
Rate of isomerization cis➔trans [2, 5]: 0.0233 s⁻¹
Rate of isomerization trans➔cis [2, 5]: 0.0135 s⁻¹
Time per isomerization event cis➔trans [2, 5]: 42.92 s
Time per isomerization event trans➔cis [2, 5]: 74.07 s
Time per isomerization event cis➔trans ([2]; 55 °C): 4.65 s
Time per isomerization event trans➔cis ([2]; 55 °C): 8.06 s
Rate of isomerization cis➔trans [2, 6]: 0.215 s⁻¹
Rate of isomerization trans➔cis [2, 6]: 0.124 s⁻¹
Time per isomerization event cis➔trans ([2]; 60 °C): 2.62 s
Time per isomerization event trans➔cis ([2]; 60 °C): 4.55 s
Rate of isomerization cis➔trans [2, 7]: 0.382 s⁻¹
Rate of isomerization trans➔cis [2, 7]: 0.22 s⁻¹
Time per isomerization event cis➔trans ([2]; 65 °C): 1.50 s
Time per isomerization event trans➔cis ([2]; 65 °C): 2.60 s
Rate of isomerization cis➔trans [2, 8]: 0.667 s⁻¹
Rate of isomerization trans➔cis [2, 8]: 0.384 s⁻¹
temperature at which exchange cross peaks first appeared ([2]; ZZ exchange at increasing temperature): 55 °C

PPIF: mitochondrial cyclophilin [reference compound]
activity on TAD switch isomerization, in words (BMAL1 TAD): at least as active on the TAD as the top-ranked nuclear cyclophilins

CC1(C)[C@H](C(=O)O[C@H](C#N)c2cccc(Oc3ccccc3)c2)[C@@H]1C=C(Br)Br [Deltamethrin]
effect on circadian period (U2OS Bmal1-dLuc cells): did not elicit a change in period

wild type Bmal1: Flag-tagged mouse Bmal1 stably complemented in cells
circadian period [3]: approximately 23 hours

From publication PMC5484534 (Molecular cell, 2017)
